The text below walks through data of publication PMC10325834, “Characteristics of Mycobacterium tuberculosis PtpA interaction and activity on the alpha subunit of human mitochondrial trifunctional protein, a key enzyme of lipid metabolism” (Frontiers in Cellular and Infection Microbiology, 2023).

This data set deals with the molecule itself. Nature of the data set: SEC; Superdex 200 16/60 preparative grade; 50 mM Tris-HCl pH 8.0, 100 mM NaCl, 5% glycerol, 0.1% Tween 20; apparent molecular weight from a calibration curve. For orientation: In gel filtration, larger molecules generally elute earlier.

B1: recombinant alpha subunit of human mitochondrial trifunctional protein, wild type (enzyme)
chain: not shown
notes: also called hTFPα; hTFPα-wt; source: E. coli BL21 (DE3), purified (Ni-NTA, SEC on Superdex 200)
As for B1, the “stoichiometry N” value turned out to be 2.

B2: recombinant alpha subunit of human mitochondrial trifunctional protein, Y271F mutant (enzyme)
chain: not shown
notes: also called hTFPα-Y271F; source: E. coli BL21 (DE3), purified (Ni-NTA, TEV cleavage, SEC)
Turning to B2, the “stoichiometry N” value came out at 2.

One may read the stoichiometry N as the number of molecules, sites or subunits per partner or assembly.
